In publication doi:10.1101/2020.07.24.212647 (bioRxiv, 2020):
Like-named read-outs stand apart in the source and are kept apart here.

Key:
[1] = target: Corynebacterium mustelae E2p catalytic domain (CmE2p_CD) (Corynebacterium mustelae); assay: crystal structure
AUC [2] = target: the molecule itself; assay: AUC
AUC [3] = target: the molecule itself; assay: AUC; remark: listed apart in the source
crystal structure = target: the molecule itself; assay: crystal structure

Corynebacterium mustelae E2p catalytic domain (CmE2p_CD) (domain or fragment)
stoichiometry N [1]: 3

B1: M. tuberculosis E2b, full-length (MtE2b_FL) (enzyme)
chain: MSGEDSIRSFPVPDLGEGLQEVTVTCWSVAVGDDVEINQTLCSVETAKAEVEIPSPYAGRIVELGGAEGDVLKVGAELVRIDTGPTAVAQPNGEGAVPTLVGYGADTAIETSRRTSRPLAAPVVRKLAKELAVDLAALQRGSGAGGVITRADVLAAARGGVGAGPDVRPVHGVHARMAEKMTLSHKEIPTAKASVEVICAELLRLRDRFVSAAPEITPFALTLRLLVIALKHNVILNSTWVDSGEGPQVHVHRGVHLGFGAATERGLLVPVVTDAQDKNTRELASRVAELITGAREGTLTPAELRGSTFTVSNFGALGVDDGVPVINHPEAAILGLGAIKPRPVVVGGEVVARPTMTLTCVFDHRVVDGAQVAQFMCELRDLIESPETALLDL
stoichiometry N (AUC [2]): 24

B2: C. glutamicum E2p, full-length (CgE2p_FL) (enzyme)
chain: MAFSVEMPELGESVTEGTITQWLKSVGDTVEVDEPLLEVSTDKVDTEIPSPVAGVILEIKAEEDDTVDVGGVIAIIGDADETPANEAPADEAPAPAEEEEPVKEEPKKEAAPEAPAATGAATDVEMPELGESVTEGTITQWLKAVGDTVEVDEPLLEVSTDKVDTEIPSPVAGTIVEILADEDDTVDVGAVIARIGDANAAAAPAEEEAAPAEEEEPVKEEPKKEAAPEAPAATGAATDVEMPELGESVTEGTITQWLKAVGDTVEVDEPLLEVSTDKVDTEIPSPVAGTIVEILADEDDTVDVGAVIARIGDANAAAAPAEEEAAPAEEEEPVKEEPKKEEPKKEEPKKEAATTPAAASATVSASGDNVPYVTPLVRKLAEKHGVDLNTVTGTGIGGRIRKQDVLAAANGEAAPAEAAAPVSAWSTKSVDPEKAKLRGTTQKVNRIREITAMKTVEALQISAQLTQLHEVDMTRVAELRKKNKPAFIEKHGVNLTYLPFFVKAVVEALVSHPNVNASFNAKTKEMTYHSSVNLSIAVDTPAGLLTPVIHDAQDLSIPEIAKAIVDLADRSRNNKLKPNDLSGGTFTITNIGSEGALSDTPILVPPQAGILGTGAIVKRPVVITEDGIDSIAIRQMVFLPLTYDHQVVDGADAGRFLTTIKDRLETANFEGDLQL
stoichiometry N (AUC [3]): 3

B3: C. glutamicum E2p catalytic domain (CgE2p_CD) (domain or fragment)
chain: LRGTTQKVNRIREITAMKTVEALQISAQLTQLHEVDMTRVAELRKKNKPAFIEKHGVNLTYLPFFVKAVVEALVSHPNVNASFNAKTKEMTYHSSVNLSIAVDTPAGLLTPVIHDAQDLSIPEIAKAIVDLADRSRNNKLKPNDLSGGTFTITNIGSEGALSDTPILVPPQAGILGTGAIVKRPVVITEDGIDSIAIRQMVFLPLTYDHQVVDGADAGRFLTTIKDRLETANFEGDLQL
stoichiometry N (AUC [3]): 3

B4: C. glutamicum E2p catalytic core and peripheral subunit binding domain (CgE2p-ΔLBDs) (domain or fragment)
chain: YVTPLVRKLAEKHGVDLNTVTGTGIGGRIRKQDVLAAANGEAAPAEAAAPVSAWSTKSVDPEKAKLRGTTQKVNRIREITAMKTVEALQISAQLTQLHEVDMTRVAELRKKNKPAFIEKHGVNLTYLPFFVKAVVEALVSHPNVNASFNAKTKEMTYHSSVNLSIAVDTPAGLLTPVIHDAQDLSIPEIAKAIVDLADRSRNNKLKPNDLSGGTFTITNIGSEGALSDTPILVPPQAGILGTGAIVKRPVVITEDGIDSIAIRQMVFLPLTYDHQVVDGADAGRFLTTIKDRLETANFEGDLQL
binding result (crystal structure): binds
